Target: Bax (human (endogenous in U-2 OS and Sa OS)) (UniProt Q07812)
Assay: co-IP

Ku70, sequence (P12956 whole entry): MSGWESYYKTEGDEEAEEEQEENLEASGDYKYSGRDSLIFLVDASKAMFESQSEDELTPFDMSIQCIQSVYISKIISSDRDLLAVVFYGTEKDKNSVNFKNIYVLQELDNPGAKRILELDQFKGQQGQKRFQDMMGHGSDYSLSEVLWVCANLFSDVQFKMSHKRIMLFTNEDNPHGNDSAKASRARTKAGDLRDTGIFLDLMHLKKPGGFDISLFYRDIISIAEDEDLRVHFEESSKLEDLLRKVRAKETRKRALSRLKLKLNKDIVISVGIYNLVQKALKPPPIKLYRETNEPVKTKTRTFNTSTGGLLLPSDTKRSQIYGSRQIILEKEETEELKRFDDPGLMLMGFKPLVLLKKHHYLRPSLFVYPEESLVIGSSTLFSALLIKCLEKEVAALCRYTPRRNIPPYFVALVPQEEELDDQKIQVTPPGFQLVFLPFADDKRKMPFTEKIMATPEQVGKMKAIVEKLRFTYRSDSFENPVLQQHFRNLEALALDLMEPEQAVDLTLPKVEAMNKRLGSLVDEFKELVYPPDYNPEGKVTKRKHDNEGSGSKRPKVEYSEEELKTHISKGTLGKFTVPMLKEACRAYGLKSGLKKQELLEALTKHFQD
Bax (human (endogenous in U-2 OS and Sa OS)), sequence (Q07812 whole entry): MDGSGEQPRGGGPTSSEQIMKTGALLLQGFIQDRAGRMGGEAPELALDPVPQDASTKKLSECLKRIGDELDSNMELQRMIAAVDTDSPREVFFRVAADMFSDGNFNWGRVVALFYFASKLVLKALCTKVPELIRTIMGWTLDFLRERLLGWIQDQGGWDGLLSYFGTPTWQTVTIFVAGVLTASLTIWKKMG

percent of Ku70 remaining bound to Bax after sCLU depletion: < 25%
Substance: Ku70 (from UniProt P12956 1-609) (natural protein)

Source: article PMC4483278
